Results from PMC2700399 (The Journal of Cell Biology, 2009).

T1: TAP-tagged Ndc1 (S. cerevisiae, UniProt P32500 1-655)
T1 sequence (looked up): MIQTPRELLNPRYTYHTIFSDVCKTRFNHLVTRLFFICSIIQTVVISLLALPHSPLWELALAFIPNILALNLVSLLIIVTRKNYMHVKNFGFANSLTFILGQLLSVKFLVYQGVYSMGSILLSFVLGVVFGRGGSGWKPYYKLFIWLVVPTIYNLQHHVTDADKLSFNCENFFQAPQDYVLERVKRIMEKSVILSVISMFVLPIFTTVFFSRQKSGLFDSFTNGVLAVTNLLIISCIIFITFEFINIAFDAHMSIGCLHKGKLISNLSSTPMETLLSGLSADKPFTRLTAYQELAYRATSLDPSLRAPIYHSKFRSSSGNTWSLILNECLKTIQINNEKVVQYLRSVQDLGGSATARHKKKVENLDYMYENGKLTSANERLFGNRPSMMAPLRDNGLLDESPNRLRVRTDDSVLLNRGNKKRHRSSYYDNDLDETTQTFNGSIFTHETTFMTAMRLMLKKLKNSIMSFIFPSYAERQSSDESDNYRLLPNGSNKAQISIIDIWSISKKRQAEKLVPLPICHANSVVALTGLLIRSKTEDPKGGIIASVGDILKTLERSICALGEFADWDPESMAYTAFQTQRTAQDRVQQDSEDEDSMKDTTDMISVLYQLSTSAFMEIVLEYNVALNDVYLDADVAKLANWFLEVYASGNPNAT


Tests used:
TAP-tagged Ndc1 = molecular target: T1, TAP-tagged Ndc1; assay: pull-down
TAP-Nup170 = TAP-Nup170 (S. cerevisiae, UniProt P38181 1-1502); assay: pull-down
TAP-Nup170, sequence (P38181 whole entry): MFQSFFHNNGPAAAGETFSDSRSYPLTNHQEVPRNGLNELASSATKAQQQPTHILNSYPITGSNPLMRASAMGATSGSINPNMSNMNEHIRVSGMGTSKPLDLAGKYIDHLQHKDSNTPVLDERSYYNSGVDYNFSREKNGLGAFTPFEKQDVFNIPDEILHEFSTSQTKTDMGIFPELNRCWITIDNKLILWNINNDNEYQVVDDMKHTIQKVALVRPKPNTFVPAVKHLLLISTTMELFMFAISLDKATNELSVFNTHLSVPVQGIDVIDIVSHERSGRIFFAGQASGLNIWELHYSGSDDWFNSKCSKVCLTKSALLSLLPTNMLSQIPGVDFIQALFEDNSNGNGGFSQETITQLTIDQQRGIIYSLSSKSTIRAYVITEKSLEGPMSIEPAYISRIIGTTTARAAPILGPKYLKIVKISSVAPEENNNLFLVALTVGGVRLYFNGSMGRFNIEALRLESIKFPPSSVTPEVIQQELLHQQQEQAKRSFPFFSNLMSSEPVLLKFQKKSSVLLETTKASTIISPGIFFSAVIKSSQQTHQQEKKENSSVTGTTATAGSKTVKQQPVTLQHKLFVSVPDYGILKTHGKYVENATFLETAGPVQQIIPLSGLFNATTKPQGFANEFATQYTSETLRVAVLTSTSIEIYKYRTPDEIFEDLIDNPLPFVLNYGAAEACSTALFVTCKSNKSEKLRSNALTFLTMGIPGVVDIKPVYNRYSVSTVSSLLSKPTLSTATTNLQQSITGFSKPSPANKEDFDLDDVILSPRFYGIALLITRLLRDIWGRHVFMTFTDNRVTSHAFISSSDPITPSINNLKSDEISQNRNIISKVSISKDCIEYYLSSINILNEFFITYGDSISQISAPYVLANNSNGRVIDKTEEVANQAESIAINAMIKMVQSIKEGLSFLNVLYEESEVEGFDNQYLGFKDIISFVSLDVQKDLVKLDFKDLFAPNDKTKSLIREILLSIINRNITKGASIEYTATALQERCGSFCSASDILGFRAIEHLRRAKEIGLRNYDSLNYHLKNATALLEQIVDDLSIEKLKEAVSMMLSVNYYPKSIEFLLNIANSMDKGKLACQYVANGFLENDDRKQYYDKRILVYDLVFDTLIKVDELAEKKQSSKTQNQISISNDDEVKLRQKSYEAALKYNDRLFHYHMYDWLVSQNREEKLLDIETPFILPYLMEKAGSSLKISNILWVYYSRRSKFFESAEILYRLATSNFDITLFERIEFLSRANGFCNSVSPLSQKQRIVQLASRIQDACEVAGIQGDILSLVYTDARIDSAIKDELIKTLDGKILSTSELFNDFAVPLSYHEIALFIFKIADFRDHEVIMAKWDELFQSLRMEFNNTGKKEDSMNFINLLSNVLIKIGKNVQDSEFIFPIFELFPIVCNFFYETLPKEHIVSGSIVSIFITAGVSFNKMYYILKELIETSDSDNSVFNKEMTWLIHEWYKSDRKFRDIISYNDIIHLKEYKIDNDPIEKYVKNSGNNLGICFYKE

| binding result (TAP-tagged Ndc1) | binding result (TAP-Nup170) | Binder |
| --- | --- | --- |
| binds | – | GST-Nup53(376-475) (domain or fragment, S. cerevisiae, UniProt Q03790 376-475, looked up) KDLSNYRKTEGIFEKAKAKAVTSKVRNAEFKVSKNSTSFKNPRRLEIKDGRSLFLRNRGKIHSGVLSSIESDLKKREQASKSKKSWLNRLNNWLFGWNDL |
| – | binds | 6xHis-MBP-Nup53 (natural protein, S. cerevisiae, UniProt Q03790 1-475, looked up) MADLQKQENSSRFTNVSVIAPESQGQHEQQKQQEQLEQQKQPTGLLKGLNGFPSAPQPLFMEDPPSTVSGELNDNPAWFNNPRKRAIPNSIIKRSNGQSLSPVRSDSADVPAFSNSNGFNNVTFGSKKDPRILKNVSPNDNNSANNNAHSSDLGTVVFDSNEAPPKTSLADWQKEDGIFSSKTDNIEDPNLSSNITFDGKPTATPSPFRPLEKTSRILNFFDKNTKTTPNTASSEASAGSKEGASTNWDDHAIIIFGYPETIANSIILHFANFGEILEDFRVIKDFKKLNSKNMSKSPSLTAQKYPIYTGDGWVKLTYKSELSKSRALQENGIIMNGTLIGCVSYSPAALKQLASLKKSEEIINNKTSSQTSLSSKDLSNYRKTEGIFEKAKAKAVTSKVRNAEFKVSKNSTSFKNPRRLEIKDGRSLFLRNRGKIHSGVLSSIESDLKKREQASKSKKSWLNRLNNWLFGWNDL |
| binds | – | GST-Nup59 (natural protein, S. cerevisiae, UniProt Q05166 1-528, looked up) MFGIRSGNNNGGFTNLTSQAPQTTQMFQSQSQLQPQPQPQPQQQQQHLQFNGSSDASSLRFGNSLSNTVNANNYSSNIGNNSINNNNIKNGTNNISQHGQGNNPSWVNNPKKRFTPHTVIRRKTTKQNSSSDINQNDDSSSMNATMRNFSKQNQDSKHNERNKSAANNDINSLLSNFNDIPPSVTLQDWQREDEFGSIPSLTTQFVTDKYTAKKTNRSAYDSKNTPNVFDKDSYVRIANIEQNHLDNNYNTAETNNKVHETSSKSSSLSAIIVFGYPESISNELIEHFSHFGHIMEDFQVLRLGRGINPNTFRIFHNHDTGCDENDSTVNKSITLKGRNNESNNKKYPIFTGESWVKLTYNSPSSALRALQENGTIFRGSLIGCIPYSKNAVEQLAGCKIDNVDDIGEFNVSMYQNSSTSSTSNTPSPPNVIITDGTLLREDDNTPAGHAGNPTNISSPIVANSPNKRLDVIDGKLPFMQNAGPNSNIPNLLRNLESKMRQQEAKYRNNEPAGFTHKLSNWLFGWNDL |
| – | binds | 6xHis-MBP-Nup59 (natural protein, S. cerevisiae, UniProt Q05166 1-528, looked up) MFGIRSGNNNGGFTNLTSQAPQTTQMFQSQSQLQPQPQPQPQQQQQHLQFNGSSDASSLRFGNSLSNTVNANNYSSNIGNNSINNNNIKNGTNNISQHGQGNNPSWVNNPKKRFTPHTVIRRKTTKQNSSSDINQNDDSSSMNATMRNFSKQNQDSKHNERNKSAANNDINSLLSNFNDIPPSVTLQDWQREDEFGSIPSLTTQFVTDKYTAKKTNRSAYDSKNTPNVFDKDSYVRIANIEQNHLDNNYNTAETNNKVHETSSKSSSLSAIIVFGYPESISNELIEHFSHFGHIMEDFQVLRLGRGINPNTFRIFHNHDTGCDENDSTVNKSITLKGRNNESNNKKYPIFTGESWVKLTYNSPSSALRALQENGTIFRGSLIGCIPYSKNAVEQLAGCKIDNVDDIGEFNVSMYQNSSTSSTSNTPSPPNVIITDGTLLREDDNTPAGHAGNPTNISSPIVANSPNKRLDVIDGKLPFMQNAGPNSNIPNLLRNLESKMRQQEAKYRNNEPAGFTHKLSNWLFGWNDL |
